Drawing on PMC6771244, “VSTM2A suppresses colorectal cancer and antagonizes Wnt signaling receptor LRP6” (Theranostics, 2019), this text covers Kd for two molecules.

Experiment [1] deals with DKK1 (Homo sapiens) (UniProt O94907). As to the kind of experiment: SPR. Particulars: cited from earlier work.
Experiment [2] has as its target T1, recombinant human LRP-6 Fc Chimera Protein (R&D, 1505-LR-025) (human, UniProt O75581 20-1370).
T1 construct: human LRP6 part of a commercial Fc chimera; also called LRP6 (1505-LR-025); source: bought: R&D
T1 sequence (looked up): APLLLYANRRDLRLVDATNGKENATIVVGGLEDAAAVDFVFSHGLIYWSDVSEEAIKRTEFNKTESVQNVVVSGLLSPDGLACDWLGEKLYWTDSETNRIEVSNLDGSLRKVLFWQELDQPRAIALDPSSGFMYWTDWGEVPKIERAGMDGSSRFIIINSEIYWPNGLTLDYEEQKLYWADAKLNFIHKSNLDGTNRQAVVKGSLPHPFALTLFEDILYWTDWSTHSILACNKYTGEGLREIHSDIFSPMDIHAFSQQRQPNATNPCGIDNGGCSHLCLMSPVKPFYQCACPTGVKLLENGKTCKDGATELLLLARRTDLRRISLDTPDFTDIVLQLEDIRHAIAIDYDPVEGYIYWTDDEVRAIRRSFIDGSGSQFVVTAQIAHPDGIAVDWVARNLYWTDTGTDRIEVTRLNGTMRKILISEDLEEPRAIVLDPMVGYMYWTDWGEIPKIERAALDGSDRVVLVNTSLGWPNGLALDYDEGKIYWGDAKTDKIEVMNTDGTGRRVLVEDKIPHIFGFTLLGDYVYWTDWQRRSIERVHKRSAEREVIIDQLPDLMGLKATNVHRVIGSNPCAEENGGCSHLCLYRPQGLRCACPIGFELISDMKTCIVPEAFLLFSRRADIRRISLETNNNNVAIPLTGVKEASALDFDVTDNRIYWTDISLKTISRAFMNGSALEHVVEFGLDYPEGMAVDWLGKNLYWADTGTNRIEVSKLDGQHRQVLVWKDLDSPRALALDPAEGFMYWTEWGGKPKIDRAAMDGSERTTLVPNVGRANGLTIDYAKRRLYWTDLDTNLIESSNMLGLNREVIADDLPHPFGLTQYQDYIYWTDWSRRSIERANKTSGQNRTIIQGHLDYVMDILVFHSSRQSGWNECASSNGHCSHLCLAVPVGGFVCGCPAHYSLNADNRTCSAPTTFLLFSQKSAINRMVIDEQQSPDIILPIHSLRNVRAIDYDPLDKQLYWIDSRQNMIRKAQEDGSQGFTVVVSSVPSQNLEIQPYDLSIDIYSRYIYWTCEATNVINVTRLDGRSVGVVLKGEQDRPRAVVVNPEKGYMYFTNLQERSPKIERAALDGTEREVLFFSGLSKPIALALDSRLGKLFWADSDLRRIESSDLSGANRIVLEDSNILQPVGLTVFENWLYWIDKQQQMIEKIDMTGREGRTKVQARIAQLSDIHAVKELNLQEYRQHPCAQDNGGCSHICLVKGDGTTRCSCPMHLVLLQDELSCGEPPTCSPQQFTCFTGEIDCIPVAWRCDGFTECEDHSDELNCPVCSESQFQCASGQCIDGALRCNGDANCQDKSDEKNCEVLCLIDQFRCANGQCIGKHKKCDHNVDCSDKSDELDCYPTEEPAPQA
Put plainly: ELISA; titration ELISA; 5 ug/ml LRP-6 Fc immobilised on the plate at 4 °C for 12 h, blocked with 5% BSA in PBS; VSTM2A His-tag serial dilution (start 100 ug/ml, factor 4) for 2 h at room temperature, in duplicate; interaction fixed by DTSSP; pNPP read at OD405. Particulars: both partners purified. In general terms: An ELISA detects its analyte on a solid surface through an enzyme-linked reagent.

Sequence of DKK1 (Homo sapiens) (O94907 32-266): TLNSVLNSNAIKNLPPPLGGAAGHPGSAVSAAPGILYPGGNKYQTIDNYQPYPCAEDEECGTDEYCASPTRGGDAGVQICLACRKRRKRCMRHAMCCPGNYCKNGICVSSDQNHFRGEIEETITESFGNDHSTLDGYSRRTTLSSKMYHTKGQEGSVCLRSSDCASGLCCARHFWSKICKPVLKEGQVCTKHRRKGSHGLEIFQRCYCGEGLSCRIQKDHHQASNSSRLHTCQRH

Turning to LRP6 (from UniProt O75581), the Kd (commonly the equilibrium constant for the complex coming apart) in experiment [1] was 0.6 nM.

B1: Recombinant Human VSTM2A His-tag Protein (R&D, 10037-VT) (ligand, UniProt Q8TAG5 25-236, looked up)
chain: SQAKFTEFPRNVTATEGQNVEMSCAFQSGSASVYLEIQWWFLRGPEDLDPGAEGAGAQVELLPDRDPDSDGTKISTVKVQGNDISHKLQISKVRKKDEGLYECRVTDANYGELQEHKAQAYLKVNANSHARRMQAFEASPMWLQDMKPRKNVSAAIPSSIHGSANQRTHSTSSPQVVAKIPKQSPQSGARIATSHGLSVLLLVCGFVKGALL
notes: human VSTM2A, commercial recombinant protein; also called recombinant VSTM2A; VSTM2A pure protein; source: bought: R&D
On to B1, for which the Kd in experiment [2] came out at 9.19 nM.
